The source of these data is publication doi:10.1101/2021.05.06.442907.

The experiment has as its target actin filaments (UniProt P68135).

As for “Chara braunii myosin XI-1 motor domain construct without IQ motifs (domain or fragment)”, the Vmax of actin-activated ATPase activity, 25 °C (Pi s^−1 head^−1) stood at 410.
